Test results as given in patent US20240247058A1 (published 2024).

Legend:
Mouse TNFα = biological target: T1, Mouse TNFα (mouse, UniProt P06804 80-235); test: cell-based or functional assay
T1 sequence (looked up): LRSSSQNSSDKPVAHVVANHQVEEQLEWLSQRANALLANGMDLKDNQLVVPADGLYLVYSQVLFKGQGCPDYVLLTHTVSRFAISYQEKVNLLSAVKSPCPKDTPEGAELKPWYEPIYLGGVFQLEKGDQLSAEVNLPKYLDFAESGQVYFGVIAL

[1] = biological target: T2, human Tumour Necrosis Factor alpha (hTNFα) (human, UniProt P01375 77-233); test: cell-based or functional assay
T2 sequence (P01375 77-233 limits assumed): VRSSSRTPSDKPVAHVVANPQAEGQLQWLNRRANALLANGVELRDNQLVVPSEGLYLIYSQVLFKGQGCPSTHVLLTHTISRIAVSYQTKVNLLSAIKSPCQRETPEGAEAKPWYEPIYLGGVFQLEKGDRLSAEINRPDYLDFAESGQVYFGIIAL

[2] = biological target: T2, human Tumour Necrosis Factor alpha …; test: kinetics on hTNFα, Table 1 (instrument for Ka/Kd not stated)
[3] = biological target: T2, human Tumour Necrosis Factor alpha …; test: BLI, Octet RED96, biotinylated hTNF-α on streptavidin sensors (BIAcore cell is n/a)
[4] = biological target: T2, human Tumour Necrosis Factor alpha …; test: BLI, Octet RED96, biotinylated hTNF-α on streptavidin sensors
[5] = biological target: T2, human Tumour Necrosis Factor alpha …; test: SPR, BIAcore T200, TNFα amine-coupled to chip, 1:1 Langmuir fit
mouse ICOS ligand = biological target: T3, mouse ICOS ligand (mouse, UniProt Q9JHJ8 47-279, limits assumed); test: binding ELISA on human and mouse ICOS ligands (FIG. 11)
T3 construct: the construct is not described; also called mICOSL
T3 sequence (looked up): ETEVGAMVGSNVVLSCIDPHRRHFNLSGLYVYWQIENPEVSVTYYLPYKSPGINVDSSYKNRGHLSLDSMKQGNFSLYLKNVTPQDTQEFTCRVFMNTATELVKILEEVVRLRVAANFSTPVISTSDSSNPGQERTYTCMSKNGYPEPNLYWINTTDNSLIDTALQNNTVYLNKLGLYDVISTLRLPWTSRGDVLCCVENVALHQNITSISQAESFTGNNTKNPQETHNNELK

human ICOS ligand = biological target: T4, human ICOS ligand (human, UniProt O75144 19-258, limits assumed); test: as above
T4 construct: also called hICOSL
T4 sequence (looked up): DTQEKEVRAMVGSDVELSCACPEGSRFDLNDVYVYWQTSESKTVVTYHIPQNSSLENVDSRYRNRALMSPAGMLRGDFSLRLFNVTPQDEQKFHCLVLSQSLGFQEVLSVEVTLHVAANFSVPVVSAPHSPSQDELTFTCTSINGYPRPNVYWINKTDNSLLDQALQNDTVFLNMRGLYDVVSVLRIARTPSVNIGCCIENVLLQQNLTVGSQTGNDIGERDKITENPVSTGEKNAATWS

[6] = biological target: T2, human Tumour Necrosis Factor alpha …; test: statement in the legend of the Caco-2 permeability assay (FIG. 8)
[7] = biological target: T2, human Tumour Necrosis Factor alpha …; test: binding profile of humanised D1 versions on hTNF-alpha (FIG. 16)

B1: TNF S17-Quad-X™ with (Gly4Ser)5 (Fc fusion)
chain: ASVNQTPRTATKETGESLTINCVLTDTHAKVFTTSWFRKNPGTTDWERMSIGGRYVESVNKGAKSFSLRIKDLTVADSATYICRAGGYLSQPRVYWDVYGAGTVLTVNGGGGSGGGGRTEPRGPTIKPCPPCKCPAPNLLGGPSVFIFPPKIKDVLMISLSPIVTCVVVDVSEDDPDVQISWFVNNVEVHTAQTQTHREDYNSTLRVVSALPIQHQDWMSGKEFKCKVNNKDLPAPIERTISKPKGSVRAPQVYVLPPPEEEMTKKQVTLTCMVTDFMPEDIYVEWTNNGKTELNYKNTEPVLDSDGSYFMYSKLRVEKKNWVERNSYSCSVVHEGLHNHHTTKSFSRTPGKGGGGSGGGGSGGGGSGGGGSGAHSASVNQTPRTATKETGESLTINCVLTDTHAKVFTTSWFRKNPGTTDWERMSIGGRYVESVNKGAKSFSLRIKDLTVADSATYICRAGGYLSQPRVYWDVYGAGTVLTVN
How did the “fold improvement of in vitro neutralizing potency over S17-Fc” value (Mouse TNFα) turn out when B1 was run?
Its value is roughly 40 fold.

B2: TNF VNAR DIMER D1-B4 (VNAR)
chain: ARVDQTPQTITKETGESLPINCVLRDSHCATSSTYWYRKKSGSTNEESISKGGRYVETVNSGSKSFSLRINDLTVEDSGTYRCASECQYGLAEYDVYGGGTVVTVNGGGGSGGGGGSGAHSARVDQTPQTITKETGESLTINCVLRDSNCALSSMYWYRKKSGSTNEESISKGGRYVETVNSGSKSFSLRINDLTVEDSGTYRCKVYIPCIDELVYMISGGTSGPIHDVYGGGTVVTVNAAAHHHHHHGAAEQKLISEEDL
With B2 as the binder, how does the “ND50 (nM), neutralisation of hTNF-alpha cytotoxicity in L929 cells” value (“ND50 (nM), neutralisation” below) [1] read?
Its value is 8 nM.

What about the koff [2] of the same binder?
The koff was 0.0005 s⁻¹.

And the kon [2]?
The kon was 270000 M⁻¹ s⁻¹.

What about the Kd [3] of the same binder?
Its Kd is 15.9 nM.

B3: TNF VNAR D1-BA11-D1 (VNAR)
chain: ARVDQTPQTITKETGESLTINCVLRDSHCATSSTYWYRKKSGSTNEESISKGGRYVETVNSGSKSFSLRINDLTVEDSGTYRCASECQYGLAEYDVYGGGTVVTVNGGGGSGGGGSGGGGSGGGGSGAHSTRVDQSPSSLSASVGDRVTITCVLTDTSYPLYSTYWYRKNPGSSNKEQISISGRYSESVNKGTKSFTLTISSLQPEDSATYYCRAMSTNIWTGDGAGTKVEIKGGGGSGGGGSGGGGSGGGGSGAHSARVDQTPQTITKETGESLTINCVLRDSHCATSSTYWYRKKSGSTNEESISKGGRYVETVNSGSKSFSLRINDLTVEDSGTYRCASECQYGLAEYDVYGGGTVVTVNHHHHHHHEQKLISEEDL
notes: Tandem VNAR trimer with His and myc tags
How did the “ND50 (nM), neutralisation” value [1] turn out when B3 was run?
The value was 0.38 nM.

What about the koff [2] of the same binder?
The koff was 0.0002 s⁻¹.

What about the kon [2] of the same binder?
Its kon is 1.9e+06 M⁻¹ s⁻¹.

And the Kd [4]?
Its Kd is 0.1 nM.

What about the Kd [5] of the same binder?
Its Kd is 4 nM.

B4: TNF VNAR DIMER D1-D1 (VNAR)
chain: ARVDQTPQTITKETGESLTINCVLRDSHCATSSTYWYRKKSGSTNEESISKGGRYVETVNSGSKSFSLRINDLTVEDSGTYRCASECQYGLAEYDVYGGGTVVTVNGGGGSGGGGGSGAHSARVDQTPQTITKETGESLTINCVLRDSHCATSSTYWYRKKSGSTNEESISKGGRYVETVNSGSKSFSLRINDLTVEDSGTYRCASECQYGLAEYDVYGGGTVVTVNAAAHHHHHHGAAESKLISEEDL
Which “ND50 (nM), neutralisation” value [1] does the source give for B4 here?
The value was 7 nM.

And the koff [2]?
The koff was 0.000316 s⁻¹.

What about the kon [2] of the same binder?
The kon was 500000 M⁻¹ s⁻¹.

What about the Kd [3] of the same binder?
The Kd was 0.6 nM.

B5: TNF VNAR D1-BA11-B4 (VNAR)
chain: ARVDQTPQTITKETGESLTINCVLRDSHCATSSTYWYRKKSGSTNEESISKGGRYVETVNSGSKSFSLRINDLTVEDSGTYRCASECQYGLAEYDVYGGGTVVTVNGGGGSGGGGSGGGGSGGGGSGAHSTRVDQSPSSLSASVGDRVTITCVLTDTSYPLYSTYWYRKNPGSSNKEQISISGRYSESVNKGTKSFTLTISSLQPEDSATYYCRAMSTNIWTGDGAGTKVEIKGGGGSGGGGSGGGGSGGGGSGAHSARVDQTPQTITKETGESLTINCVLRDSNCALSSMYWYRKKSGSTNEESISKGGRYVETVNSGSKSFSLRINDLTVEDSGTYRCKVYIPCIDELVYMISGGTSGPIHDVYGGGTVVTVNHHHHHHHEQKLISEEDL
notes: as for B3
B5 was tested. Which koff [2] did it give?
Its koff is 0.006 s⁻¹.

What about the kon [2] of the same binder?
The kon was 1.7e+06 M⁻¹ s⁻¹.

What about the Kd [3] of the same binder?
The Kd was 0.33 nM.

B6: ICOS VNAR CC3-Fc-2D4 (Fc fusion)
chain: TRVDQTPRTATKETGESLTINCVLTDTEYGLFSTSWFRKNPGTTDWERMSIGGRYVESVNKGAKSFSLRIKDLTVADSATYYCKALGWWPPAFPHWYDGAGTVLTVNGGGGSGGGGRTEPKSSDKTHTCPPCPAPEAAGAPSVFLFPPKPKDTLMISRTPEVTCVVVDVSHEDPEVKFNWYVDGVEVHNAKTKPREEQYNSTYRVVSVLTVLHQDWLNGKEYKCKVSNKALPAPIEKTISKAKGQPREPQVYTLPPSREEMTKNQVSLTCLVKGFYPSDIAVEWESNGQPENNYKTTPPVLDSDGSFFLYSKLTVDKSRWQQGNVFSCSVMHEALHNHYTQKSLSLSPGKTAAAATAAAATAAAATAAAATRVDQTPRTATKETGESLTINCVLTDTDYGLFSTSWFRKNPGTTDWERMSIGGRYVESVNKGAKSFSLRIKDLTVADSATYYCKAFTWPWEWPDRWFRPWYDGAGTVLTVN
notes: Human IgG1 Fc; also called anti-ICOSL Quad-X™ construct
Does B6 bind (mouse ICOS ligand)?
Result: binds

Does B6 bind (human ICOS ligand)?
Result: binds

B7: TNF VNAR B4 (VNAR)
VNAR: ARVDQTPQTITKETGESLTINCVLRDSNCALSSMYWYRKKSGSTNEESISKGGRYVETVNSGSKSFSLRINDLTVEDSGTYRCKVYIPCIDELVYMISGGTSGPIHDVYGGGTVVTVNA
notes: Nurse shark VNAR single domain, expressed with His and myc tags
Does B7 bind [6]?
Result: binds

B8: ICOS VNAR CC3-Fc-CC3 (Fc fusion)
chain: TRVDQTPRTATKETGESLTINCVLTDTEYGLFSTSWFRKNPGTTDWERMSIGGRYVESVNKGAKSFSLRIKDLTVADSATYYCKALGWWPPAFPHWYDGAGTVLTVNGGGGSGGGGRTEPKSSDKTHTCPPCPAPEAAGAPSVFLFPPKPKDTLMISRTPEVTCVVVDVSHEDPEVKFNWYVDGVEVHNAKTKPREEQYNSTYRVVSVLTVLHQDWLNGKEYKCKVSNKALPAPIEKTISKAKGQPREPQVYTLPPSREEMTKNQVSLTCLVKGFYPSDIAVEWESNGQPENNYKTTPPVLDSDGSFFLYSKLTVDKSRWQQGNVFSCSVMHEALHNHYTQKSLSLSPGKTAAAATAAAATAAAATAAAATRVDQTPRTATKETGESLTINCVLTDTEYGLFSTSWFRKNPGTTDWERMSIGGRYVESVNKGAKSFSLRIKDLTVADSATYYCKALGWWPPAFPHWYDGAGTVLTVN
notes: as for B6
Does B8 bind (mouse ICOS ligand)?
Result: binds

B9: SoloMER™ VNAR D1-v2 (VNAR)
VNAR: ARVDQSPSSLSASVGDRVTITCVLRDSHCATSSTYWYRKKSGSTNEESISKGGRYVETVNSGSKSFTLTISSLQPEDFATYYCASECQYGLAEYDVYGGGTKVEIKH
notes: Humanised D1 VNAR with His tag; also called soloMER D1-v2
Does B9 bind [7]?
Result: binds

B10: SoloMER™ VNAR D1-v4 (VNAR)
VNAR: ARVDQSPSSLSASVGDRVTITCVLRDSHCATSSTYWYRKKPGSTNEESISKGGRFSGSGSSGSKSFTLTISSLQPEDFATYYCASECQYGLAEYDVFGQGTKVEIKH
notes: Humanised D1 VNAR with His tag
Does B10 bind [7]?
Result: binds

B11: SoloMER™ VNAR D1-v3 (VNAR)
VNAR: ARVDQSPSSLSASVGDRVTITCVLRDSHCATSSTYWYQQKPGKTNEESISKGGRYVETVNSGSKSFTLTISSLQPEDFATYYCASECQYGLAEYDVYGGGTKVEIKH
notes: as for B10
Does B11 bind [7]?
Result: binds
